Reference: patent US20110118447A1
Positions count from the first letter of the chain named. Names and notes keep the numbering of the source. Each block holds one binder with its values, some of them ahead of it.

Target: binding partner of C5A (XPA23)
Assay: Biacore K-off

fold difference in affinity vs original: 0.49 fold
B2: C5A (XPA23) VL S50L (antibody, V domains shown)
VH: EVQLLESGGGLVQPGGSLRLSCAASGFTFSKYFMFWVRQAPGKGLEWVSVISPSGGMTRYADSVKGRFTISRDNSKNTLYLQMNSLRAEDTAVYYCARVGYGGNSDYWGQGTLVTVSS
VL: DIQMTQSPSSVSASVGDRLTIICRASQDINRWLAWYQQTPGNAPKLLIHLATSLQSGVPSRFSGSGSGTDFTLTINSLQPEDFATYYCQQADSFPLTFGGGTKVEIK

fold difference in affinity vs original: 0.68 fold
B3: C5A (XPA23) VL R31I (antibody, V domains shown)
VH: B2 VH
VL: B2 VL with R31I, L50S

fold difference in affinity vs original: 0.8 fold
B5: C5A (XPA23) VL T52I (antibody, V domains shown)
VH: B2 VH
VL: B2 VL with L50S, T52I

fold difference in affinity vs original: 0.13 fold
B6: C5A (XPA23) VL S50A (antibody, V domains shown)
VH: B2 VH
VL: B2 VL with L50A

fold difference in affinity vs original: 1.05 fold
B7: C5A (XPA23) VL T52F (antibody, V domains shown)
VH: B2 VH
VL: B2 VL with L50S, T52F

fold difference in affinity vs original: 0.87 fold
B8: C5A (XPA23) VL T52W (antibody, V domains shown)
VH: B2 VH
VL: B2 VL with L50S, T52W

fold difference in affinity vs original: 0.02 fold
B12: C5A (XPA23) VL S50W (antibody, V domains shown)
VH: B2 VH
VL: B2 VL with L50W

fold difference in affinity vs original: 1.08 fold
B13: C5A (XPA23) VL T52P (antibody, V domains shown)
VH: B2 VH
VL: B2 VL with L50S, T52P

fold difference in affinity vs original: 0.82 fold
B16: C5A (XPA23) VL T52V (antibody, V domains shown)
VH: B2 VH
VL: B2 VL with L50S, T52V

fold difference in affinity vs original: 0.21 fold
B18: C5A (XPA23) VL S50V (antibody, V domains shown)
VH: B2 VH
VL: B2 VL with L50V

fold difference in affinity vs original: 0.51 fold
B19: C5A (XPA23) VL R31L (antibody, V domains shown)
VH: B2 VH
VL: B2 VL with R31L, L50S

fold difference in affinity vs original: 0.92 fold
B21: C5A (XPA23) VL R31G (antibody, V domains shown)
VH: B2 VH
VL: B2 VL with R31G, L50S

fold difference in affinity vs original: 0.66 fold
B23: C5A (XPA23) VL T52A (antibody, V domains shown)
VH: B2 VH
VL: B2 VL with L50S, T52A

fold difference in affinity vs original: 0.78 fold
B26: C5A (XPA23) VL T52L (antibody, V domains shown)
VH: B2 VH
VL: B2 VL with L50S, T52L

fold difference in affinity vs original: 0.14 fold
B27: C5A (XPA23) VL S50G (antibody, V domains shown)
VH: B2 VH
VL: B2 VL with L50G

fold difference in affinity vs original: 0.43 fold
B28: C5A (XPA23) VL R31W (antibody, V domains shown)
VH: B2 VH
VL: B2 VL with R31W, L50S

fold difference in affinity vs original: 0.44 fold
B31: C5A (XPA23) VL R31V (antibody, V domains shown)
VH: B2 VH
VL: B2 VL with R31V, L50S

fold difference in affinity vs original: 0.25 fold
B32: C5A (XPA23) VL S50I (antibody, V domains shown)
VH: B2 VH
VL: B2 VL with L50I

Second part, the binder before the results:

B1: C5A (XPA23) VL N30W (antibody, V domains shown)
VH: B2 VH
VL: B2 VL with N30W, L50S
fold difference in affinity vs original: 1.06 fold

B4: C5A (XPA23) VL R31A (antibody, V domains shown)
VH: B2 VH
VL: B2 VL with R31A, L50S
fold difference in affinity vs original: 8.48 fold

B9: C5A (XPA23) VL H49W (antibody, V domains shown)
VH: B2 VH
VL: B2 VL with H49W, L50S
fold difference in affinity vs original: 0.21 fold

B10: C5A (XPA23) VL A51G (antibody, V domains shown)
VH: B2 VH
VL: B2 VL with L50S, A51G
fold difference in affinity vs original: 3.84 fold

B11: C5A (XPA23) VL A51V (antibody, V domains shown)
VH: B2 VH
VL: B2 VL with L50S, A51V
fold difference in affinity vs original: 0.31 fold

B14: C5A (XPA23) VL N30P (antibody, V domains shown)
VH: B2 VH
VL: B2 VL with N30P, L50S
fold difference in affinity vs original: 0.69 fold

B15: C5A (XPA23) VL R31F (antibody, V domains shown)
VH: B2 VH
VL: B2 VL with R31F, L50S
fold difference in affinity vs original: 0.92 fold

B17: C5A (XPA23) VL H49L (antibody, V domains shown)
VH: B2 VH
VL: B2 VL with H49L, L50S
fold difference in affinity vs original: 0.07 fold

B20: C5A (XPA23) VL A51L (antibody, V domains shown)
VH: B2 VH
VL: B2 VL with L50S, A51L
fold difference in affinity vs original: 0.16 fold

B22: C5A (XPA23) VL A51W (antibody, V domains shown)
VH: B2 VH
VL: B2 VL with L50S, A51W
fold difference in affinity vs original: 0.24 fold

B24: C5A (XPA23) VL H49P (antibody, V domains shown)
VH: B2 VH
VL: B2 VL with H49P, L50S
fold difference in affinity vs original: 0.86 fold

B25: C5A (XPA23) VL H49F (antibody, V domains shown)
VH: B2 VH
VL: B2 VL with H49F, L50S
fold difference in affinity vs original: 0.5 fold

B29: C5A (XPA23) VL A51P (antibody, V domains shown)
VH: B2 VH
VL: B2 VL with L50S, A51P
fold difference in affinity vs original: 0.13 fold

B30: C5A (XPA23) VL H49A (antibody, V domains shown)
VH: B2 VH
VL: B2 VL with H49A, L50S
fold difference in affinity vs original: 0.23 fold
